In patent US20120269821A1 (published 2012):

How the values were obtained:
Du422.1 envelope [1] = biological target: Du422.1 envelope (HIV-1); experiment: cell-based or functional assay
ZM197M.PB7 envelope [2] = biological target: ZM197M.PB7 envelope (HIV-1); experiment: cell-based or functional assay
SC422661.8 envelope = SC422661.8 envelope (HIV-1); experiment: cell-based or functional assay
Du156.12 envelope [3] = biological target: Du156.12 envelope (HIV-1); experiment: cell-based or functional assay
QH0692.42 envelope [4] = biological target: QH0692.42 envelope (HIV-1); experiment: cell-based or functional assay
CAP206.1.B5 envelope [5] = biological target: CAP206.1.B5 envelope (HIV-1); experiment: cell-based or functional assay
MOJO gp140 = biological target: T1, MOJO gp140 (HIV-1); experiment: antigen panel (luminex assay per paragraph 163); unit not given
T1 construct: domain: gp140

HIV-1 gp41 = HIV-1 gp41 (HIV-1); experiment: as above
hepatitis E2 protein = hepatitis E2 protein (Hepatitis C); experiment: as above
Du422.1 envelope [6] = biological target: Du422.1 envelope (HIV-1); experiment: cell-based or functional assay; parameters: unit not given beside the values
ZM197M.PB7 envelope [7] = biological target: ZM197M.PB7 envelope (HIV-1); experiment: cell-based or functional assay; parameters: unit not given beside the values
Du156.12 envelope [8] = biological target: Du156.12 envelope (HIV-1); experiment: cell-based or functional assay; parameters: unit not given beside the values
TRO.11 envelope = TRO.11 envelope (HIV-1); experiment: cell-based or functional assay; parameters: unit not given beside the values
QH0692.42 envelope [9] = biological target: QH0692.42 envelope (HIV-1); experiment: cell-based or functional assay; parameters: unit not given beside the values
CAP206.1.B5 envelope [10] = biological target: CAP206.1.B5 envelope (HIV-1); experiment: cell-based or functional assay; parameters: unit not given beside the values

B1: CAP206-CH12 (antibody, V domains shown)
VH: QVQLVQSGAEVKKPGSSVKLSCKASGGTFGSYSVTWVRQAPGQTFEWVGRIVPWVGVPNYAPKFQGRVTITADKSSTVYMELTSLRFEDTAVYYCATAYEASGLSYYYYMDDWGKGTTVTVSS
VL: EIVLTQSPGTLSLSPGERATLSCRASQSVTSSYLAWFRHKPGQAPRLLIYGASYRGTGIPDRISGSGSGTDFTLTISRLEPEDFAVYYCQHYGGSPGMYTFGQGTRLEIK
notes: also called mAb 2311; 2311
- IC50 in TZM-bl/FcγRI cells (Du422.1 envelope [1]): 2.7 mg/mL
- IC50 in TZM-bl/FcγRI cells (ZM197M.PB7 envelope [2]): 0.3 mg/mL
- IC50 in TZM-bl/FcγRI cells (SC422661.8 envelope): 0.4 mg/mL
- IC50 in TZM-bl/FcγRI cells (Du156.12 envelope [3]): 0.6 mg/mL
- IC50 in TZM-bl/FcγRI cells (QH0692.42 envelope [4]): > 32 mg/mL
- IC50 in TZM-bl/FcγRI cells (CAP206.1.B5 envelope [5]): 0.7 mg/mL
- reactivity (MOJO gp140): 2910
- reactivity (HIV-1 gp41): 1980
- reactivity (hepatitis E2 protein): 855
- IC50 in TZM-bl cells (Du422.1 envelope [6]): > 32
- IC50 in TZM-bl cells (ZM197M.PB7 envelope [7]): 13
- IC50 in TZM-bl cells (Du156.12 envelope [8]): 14.9
- IC50 in TZM-bl cells (TRO.11 envelope): 17.5
- IC50 in TZM-bl cells (QH0692.42 envelope [9]): > 32
- IC50 in TZM-bl cells (CAP206.1.B5 envelope [10]): 5.9
